Reference: article PMC4268495 (Nature, 2014)

T1: FtsZ (full length, recombinant) (Streptococcus pneumoniae, UniProt A0A0H2ZNE0 1-419)
T1 sequence (looked up): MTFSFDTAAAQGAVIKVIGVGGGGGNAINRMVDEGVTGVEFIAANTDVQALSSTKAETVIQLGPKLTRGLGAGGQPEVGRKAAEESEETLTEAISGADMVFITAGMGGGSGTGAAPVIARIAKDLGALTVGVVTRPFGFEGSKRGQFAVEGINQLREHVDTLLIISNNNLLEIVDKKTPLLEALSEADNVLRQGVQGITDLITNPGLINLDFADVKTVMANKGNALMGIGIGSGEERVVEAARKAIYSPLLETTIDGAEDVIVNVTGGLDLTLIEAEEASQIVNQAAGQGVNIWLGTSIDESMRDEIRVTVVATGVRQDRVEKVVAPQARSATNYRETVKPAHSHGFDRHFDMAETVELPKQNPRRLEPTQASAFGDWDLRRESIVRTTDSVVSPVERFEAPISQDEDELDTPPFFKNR


Biological target: T1, FtsZ (full length, recombinant)
Test: SPR

| Binder | Kd [nM] | binding result |
| --- | --- | --- |
| MapZ cytoplasmic domain (domain or fragment, Streptococcus pneumoniae, UniProt Q8DR55 1-158, looked up) MSKKRRNRHKKEAQEPQFDFDEAKELTVGQAIRKNEEVEAGVLPEDSILDKYVKQHRDEIEADKFATRQYKKEEFVETQSLDDLIQEMREAVEKSEASSEEVPSSEDILLPLPLDDEEQGLDPLLLDDENPTEMTEEVEEEQNLSRLDQEDSEKKSKK | 8.76 | – |
| MapZ-2TE cytoplasmic domain (domain or fragment, Streptococcus pneumoniae, UniProt Q8DR55 1-158, looked up) MSKKRRNRHKKEAQEPQFDFDEAKELTVGQAIRKNEEVEAGVLPEDSILDKYVKQHRDEIEADKFAERQYKKEEFVEEQSLDDLIQEMREAVEKSEASSEEVPSSEDILLPLPLDDEEQGLDPLLLDDENPTEMTEEVEEEQNLSRLDQEDSEKKSKK | – | binds |
| MSKKRRNRHKKEAQEPQFDFDEAKELTVGQAIRKNEEVEAG (domain or fragment, Streptococcus pneumoniae, UniProt Q8DR55 1-41, looked up) [MapZ N-terminal peptide from Met-1 to Gly-41] | 20.4 | – |
